# From US20040038883A1 (published 2004)
# T1: SGK
# T1 chain: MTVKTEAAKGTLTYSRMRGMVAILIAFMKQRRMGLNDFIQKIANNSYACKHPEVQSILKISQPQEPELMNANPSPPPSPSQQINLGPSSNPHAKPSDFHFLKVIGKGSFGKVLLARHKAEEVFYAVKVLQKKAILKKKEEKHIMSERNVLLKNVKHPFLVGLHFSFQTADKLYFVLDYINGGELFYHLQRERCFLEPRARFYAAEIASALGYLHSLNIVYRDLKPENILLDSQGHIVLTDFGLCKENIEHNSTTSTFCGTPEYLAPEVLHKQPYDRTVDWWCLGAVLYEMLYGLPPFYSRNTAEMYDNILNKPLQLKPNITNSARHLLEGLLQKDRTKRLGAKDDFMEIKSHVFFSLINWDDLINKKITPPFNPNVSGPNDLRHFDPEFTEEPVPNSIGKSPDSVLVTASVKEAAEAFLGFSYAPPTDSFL
# Key:
# SGK = target: T1, SGK; assay: in vitro SGK kinase activity assay, 33P-ATP, Flash Plate
# Src = target: T2, Src; assay: in vitro Src kinase activity assay, 33P-ATP, Flash Plate
# T2 construct: Bought enzyme
# Cdc2 = target: T3, Cdc2; assay: in vitro CDC2 kinase activity assay, 33P-ATP, Flash Plate
# T3 construct: Bought enzyme
# PKCδ = target: T4, PKCδ; assay: in vitro PKC delta kinase activity assay, 33P-ATP, Flash Plate
# T4 construct: Bought enzyme; also called PKC delta
# PKCγ = target: T5, PKCγ; assay: in vitro PKC gamma kinase activity assay, 33P-ATP, Flash Plate
# T5 construct: Bought enzyme; also called PKC gamma
# PKA = target: T6, PKA; assay: in vitro PKA kinase activity assay, 33P-ATP, kemptide substrate, Flash Plate
# T6 construct: Bought enzyme
# [1] = target: T7, Akt wild-type recombinant protein (Akt1) (Homo sapiens (Human), UniProt P31749 1-480, as many as five phosphorylations seen by ESI-MS (positions not stated)); assay: in vitro Akt1 kinase activity assay, biotinylated Bad-derived peptide substrate
# T7 construct: also called Akt1 wild type
# T7 sequence (P31749 other isoform, or with tags, fused parts or gaps limits assumed): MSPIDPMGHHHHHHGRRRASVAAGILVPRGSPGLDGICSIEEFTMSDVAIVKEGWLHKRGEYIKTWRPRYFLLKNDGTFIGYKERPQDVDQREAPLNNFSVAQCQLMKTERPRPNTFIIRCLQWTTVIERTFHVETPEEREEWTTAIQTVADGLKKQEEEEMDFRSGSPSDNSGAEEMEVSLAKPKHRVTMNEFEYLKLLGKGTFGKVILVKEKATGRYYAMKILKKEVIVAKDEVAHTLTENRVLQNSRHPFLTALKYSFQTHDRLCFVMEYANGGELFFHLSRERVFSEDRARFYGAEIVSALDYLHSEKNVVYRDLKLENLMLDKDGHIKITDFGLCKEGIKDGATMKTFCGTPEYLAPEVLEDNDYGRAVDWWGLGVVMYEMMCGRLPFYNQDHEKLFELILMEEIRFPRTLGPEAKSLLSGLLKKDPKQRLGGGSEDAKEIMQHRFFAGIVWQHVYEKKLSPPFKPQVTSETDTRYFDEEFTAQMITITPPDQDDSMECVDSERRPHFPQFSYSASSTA
Binder,Ki (SGK),Ki (Src),Ki (Cdc2),Ki (PKCδ),Ki (PKCγ),Ki (PKA),Ki [1]
VELDPEFEPRARERTYSFGH [Peptide 1],1 µM,> 33 µM,> 33 µM,> 42 µM,> 30 µM,> 34 µM,1.11 µM
VELDPEFEPRARERAYAFGH (Made from peptide 2 by changing Thr at position 15 to Ala) [Peptide 4],12.5 µM,> 33 µM,> 33 µM,> 42 µM,> 30 µM,> 34 µM,0.095 µM
